T1: Human MuSK (R&D Systems, cat. 10189-MK, histidine tag) (human, UniProt O15146 24-495)
T1 construct: Bought protein; also called human monomeric MuSK-6xhis; not shown: histidine tag (6xhis)
T1 sequence: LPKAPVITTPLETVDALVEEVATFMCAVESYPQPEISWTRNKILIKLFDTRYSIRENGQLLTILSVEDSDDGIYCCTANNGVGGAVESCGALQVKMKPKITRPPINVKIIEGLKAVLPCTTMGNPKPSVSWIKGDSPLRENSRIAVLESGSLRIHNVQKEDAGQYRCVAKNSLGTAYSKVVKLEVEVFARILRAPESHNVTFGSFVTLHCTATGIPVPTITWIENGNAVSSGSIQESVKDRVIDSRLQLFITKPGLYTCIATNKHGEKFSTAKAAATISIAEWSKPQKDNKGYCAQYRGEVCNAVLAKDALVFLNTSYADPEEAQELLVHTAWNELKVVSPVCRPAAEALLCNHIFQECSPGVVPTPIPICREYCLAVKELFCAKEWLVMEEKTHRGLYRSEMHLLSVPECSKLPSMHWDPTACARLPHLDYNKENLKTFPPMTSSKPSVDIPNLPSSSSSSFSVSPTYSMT

T2: Mouse MuSK as it stands on mouse muscle (neuromuscular junctions, C2C12 myotubes) (mouse, UniProt Q61006 22-868)
T2 sequence (looked up): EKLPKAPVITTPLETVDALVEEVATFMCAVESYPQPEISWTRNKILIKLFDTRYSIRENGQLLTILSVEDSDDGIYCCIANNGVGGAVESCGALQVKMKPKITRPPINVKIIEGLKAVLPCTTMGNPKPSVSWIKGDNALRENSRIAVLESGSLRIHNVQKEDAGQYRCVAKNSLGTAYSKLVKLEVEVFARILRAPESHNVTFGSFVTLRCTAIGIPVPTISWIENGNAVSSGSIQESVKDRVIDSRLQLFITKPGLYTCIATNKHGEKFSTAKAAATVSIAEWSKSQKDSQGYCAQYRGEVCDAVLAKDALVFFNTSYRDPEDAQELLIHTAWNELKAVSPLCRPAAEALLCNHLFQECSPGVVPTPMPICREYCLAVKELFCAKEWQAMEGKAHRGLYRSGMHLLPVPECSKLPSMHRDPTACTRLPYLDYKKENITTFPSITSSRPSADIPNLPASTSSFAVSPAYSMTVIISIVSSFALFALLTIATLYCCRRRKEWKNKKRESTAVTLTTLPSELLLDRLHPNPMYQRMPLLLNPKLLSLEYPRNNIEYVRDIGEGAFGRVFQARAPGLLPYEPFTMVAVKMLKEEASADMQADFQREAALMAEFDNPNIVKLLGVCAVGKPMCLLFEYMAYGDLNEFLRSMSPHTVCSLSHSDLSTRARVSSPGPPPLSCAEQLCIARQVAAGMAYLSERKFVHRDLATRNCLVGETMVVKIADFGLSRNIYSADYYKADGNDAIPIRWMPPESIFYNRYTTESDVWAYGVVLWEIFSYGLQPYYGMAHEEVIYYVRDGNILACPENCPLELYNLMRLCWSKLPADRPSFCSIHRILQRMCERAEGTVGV

T3: hMuSK delta 1-2 (Ig3 Fz) (human, UniProt O15146)
T3 construct: truncated extracellular domain, captured by anti-FLAG
T3 sequence (truncated extracellular domain, looked up): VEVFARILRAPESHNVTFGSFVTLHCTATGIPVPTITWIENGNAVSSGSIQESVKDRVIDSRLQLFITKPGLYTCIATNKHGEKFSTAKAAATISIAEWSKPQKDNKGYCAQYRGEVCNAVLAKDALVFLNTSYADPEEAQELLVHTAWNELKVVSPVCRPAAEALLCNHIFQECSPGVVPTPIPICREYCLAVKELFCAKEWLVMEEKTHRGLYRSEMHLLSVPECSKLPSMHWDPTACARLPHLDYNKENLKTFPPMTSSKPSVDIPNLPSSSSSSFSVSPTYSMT

B1: 3D10a (antibody, human IgG1, kappa, L234A L235A, V domains shown)
VH: EVQLVESGGGLVKPGGSLRLSCAASGFTFSASTMAWVRQAPGKGLEWVSSVSGDSHHIYYADSLKGRFTISRDNAKNSLYLQMNSLRAEDTAVYYCARERLLRLGVGFDSWGQGTLVTVSS
VL: DIQMTQSPSSLSASVGDRVTITCRASQRISGFVNWYQQKPGKAPKLLIYAASTLQSGVPSRFSGSGSGTDFTLTISSLQPEDFATYYCQQSYSPLYTFGQGTKLEIKR
B2: 3F6c (antibody, human IgG1, kappa, L234A L235A, V domains shown)
VH: EVQLVESGGGLVKPGGSLRLSCAASGFTFSSYTMDWVRQAPGKGLEWVSSIGSNGDYIYYADSVRGRFTISRDNAKNSLYLQMNSLRAEDTAVYYCARGQLAVAGTHFDYWGQGTLVTVSS
VL: B1 VL with R28K, I29V, S30N, G31K, F32Y, Y96S
B3: 4D3 (antibody, human IgG1, kappa, L234A L235A, V domains shown)
VH: B1 VH with A31S, S32Y, A35T, V51I, G53S, D54G, S55G, H57Y, A61T, S110F
VL: B1 VL with R28S, F32Y, V33L, P94A
B4: 3D9b (antibody, human IgG1, kappa, L234A L235A, V domains shown)
VH: EVQLVESGGGLVKPGGSLRLSCAASGFTFSTYTMHWVRQAPGKGLEWVSSISSRSAYKYYADSVKGRFTISRDNAKNSLYLQMNSLRAEDTAVYYCARDFFQLGPPRFDSWGQGTLVTVSS
VL: B1 VL with G31S, V33L, A50G, T53N, L95S

Positions count from the first letter of the chain named.

The koff is a measure of how fast the partners let go of each other. Higher therefore signals a short-lived complex.

For the first assay, the target named is T1, Human MuSK (R&D Systems, cat. 10189-MK, …). Kind of assay: SPR (Biacore), antibody captured on anti-hFc chip; 5 nM; dissociation pH 7.4. An excerpt: In order to study pH dependent binding of our antibodies to MuSK, the Biacore was used with the same setup as described in the paragraph entitled “Binding affinity for mouse, human and rhesus monkey recombinant MuSK in Biacore”. 6. […] For the other antibodies there is no real difference observed between pH 7.4 and 5.5.
Background: In SPR one partner is held on a chip, and binding of the other changes the refractive index at the surface.
B1 yielded a koff of 0.00015 s⁻¹.
Turning to B2, the off-rate constant (koff) came out at 7e-05 s⁻¹.
On to B3, for which the koff is 0.00014 s⁻¹.
In turn, B4 had an off-rate constant (koff) of 8e-05 s⁻¹.

In the next assay the target is T2, Mouse MuSK as it stands on mouse muscle …. The assay is described as follows: cell-based or functional assay.
Consider B1, for which the “MuSK phosphorylation, % versus agrin (C2C12 myotubes)” value (shortened to “MuSK phosphorylation, % versus agrin”) is 83 % versus agrin.
B2: the “MuSK phosphorylation, % versus agrin” value is 100 % versus agrin.
B3: the “MuSK phosphorylation, % versus agrin” value came out at 112 % versus agrin.
With B4, the “MuSK phosphorylation, % versus agrin” value came out at 205 % versus agrin.

In the next assay the target is T1, Human MuSK (R&D Systems, cat. 10189-MK, …). Kind of assay: SPR (Biacore), MuSK-coated chip, antibody alone (run of first antibody 4D3). How it is done:
A chip was coated with ˜5000 RU of human MuSK (Lot nr DHUCO 11908A, batch nr 1089_MK). In a first experiment the saturating concentration of the pre-leads was determined. This is the concentration where the amplitude of a specific pre-lead doesn't increase anymore when additional pre-lead is injected on the immobilized MuSK.
B1: the “amplitude of prelead without presaturating MuSK (RU)” value was 951 RU.
Still for that read-out and setting: in the case of B2 it was 1010 RU; in that of B3, 859 RU; in that of B4, 1100 RU.

The next assay concerns the target T3, hMuSK delta 1-2 (Ig3 Fz). Kind of assay: ELISA, hMuSK delta 1-2 (Ig3 Fz) captured on anti-FLAG coat, antibody titrated, anti-human Fc HRP detection, OD450. How it is done: For binding to MuSK domains—An ELISA plate was coated with 0.5 μg/ml of anti-FLAG (M2 clone, Sigma Cat. F3165) and incubated overnight at 4° C. Next, the plate was washed with PBS and blocked with 1×PBS 1% casein for two hours at RT. After washing the plate, human monomeric MuSK FLAG streptavidin (batch 27-6-2019) and truncated MuSK variants (batch 3-9-2019) at 1 μg/ml in PBS where incubated for one hour at RT. After washing the plate, antibodies were diluted in blocking buffer and added to the plate. After a one hour incubation at RT, the plate was washed. Next, detecting antibody was added and incubated for one hour at RT (anti-human Fc HRP (1/5000) (clone 5A9, cat. No. Ab7499, ABCAM)) in blocking buffer. Lastly, the plate was washed with PBS and TMB was added and the reaction was stopped with 0.5 M H2SO4. OD 450 nm was determined by the Tecan Sunrise ELISA plate reader.
For the MuSK domain binding ELISA, binding of anti-MuSK antibodies to FLAG captured human monomeric MuSK and truncated variants was tested (FIG. 6). 3D9b, 3F6c, 3D10a, 4D3 and 3B5 bound only to full length MuSK, no binding was observed against the truncated MuSK variants. Therefore, we conclude that our antibodies bind to the Ig1 domain.
(ELISA stands for enzyme-linked immunosorbent assay.)
Take B1: the binding result is recorded as “no binding (tested: log(conc) 4.2 (about 16000 ng/ml))”.
Regarding B2, the binding result is given as “no binding (tested: log(conc) 4.2 (about 16000 ng/ml))”.
Consider B3, for which the binding result was “no binding (tested: log(conc) 4.2 (about 16000 ng/ml))”.
For the molecule B4, the binding result is given as “no binding (tested: log(conc) 4.2 (about 16000 ng/ml))”.

Values taken from patent US20230110188A1 (ARGENX IIP, published 2023).
